Laboratory results: patent publication US20090214427A1 (LICENTIA, published 2009)
No end group written: not given here.

Molecular target: recombinant wild-type (wt) human kallikrein 2 (human, UniProt P20151 25-261)
Assay: cell-based or functional assay

**Q.** For GPAARPFPVTAG-OH [GPAARPFPVTAG (SEQ ID NO:17)], which inhibition is on record?
**A.** 0%

**Q.** How did the inhibition turn out when RRPFG-OH [RRPFG (SEQ ID NO:42)] was run?
**A.** 0%

**Q.** Which inhibition does the source give for ARFKVWWA-NH2 [ARFKVWWA(CONH2) (SEQ ID NO:82)] here?
**A.** 86%

**Q.** For GPARRPFPVAAG-OH [GPARRPFPVAAG (SEQ ID NO:23)], which inhibition is on record?
**A.** 45%

**Q.** How did the inhibition turn out when GPARRPFPVG-OH [GPARRPFPVG (SEQ ID NO:25)] was run?
**A.** 37%

**Q.** For FKVWWAAG [FKVWWAAG (SEQ ID NO:66)], which inhibition is on record?
**A.** 0%

**Q.** Which inhibition does the source give for GPARRPFPG-OH [GPARRPFPG (SEQ ID NO:26)] here?
**A.** 33%

**Q.** For GRRPFPG-OH [GRRPFPG (SEQ ID NO:44)], which inhibition is on record?
**A.** 0%

**Q.** GAAARPFPAPSG [GAAARPFPAPSG (SEQ ID NO:8)] was tested. Which inhibition did it give?
**A.** 0%

**Q.** SRFKG-OH [SRFKG (SEQ ID NO:72)] was tested. Which inhibition did it give?
**A.** 0%

**Q.** Which inhibition does the source give for Ac-ARFKVWWG [Ac-ARFKVWWG (SEQ ID NO:76)] here?
**A.** 93%

**Q.** GVTAG-OH [GVTAG (SEQ ID NO:38)] was tested. Which inhibition did it give?
**A.** 0%

**Q.** GPFPVTAG-OH [GFFPVTAG as printed in Table 6 (SEQ ID NO:35)] was tested. Which inhibition did it give?
**A.** 0%

**Q.** How did the inhibition turn out when Ac-SRFKVWWG [Ac-SRFKVWWG (SEQ ID NO:74)] was run?
**A.** 86%

**Q.** With Ac-ARFKVWWGG [Ac-ARFKVWWGG (SEQ ID NO:77)] as the binder, how does the inhibition read?
**A.** 92%

**Q.** AARRPAPG-OH [AARRPAPG (SEQ ID NO:45)] was tested. Which inhibition did it give?
**A.** 36%

**Q.** GAARRPFPAPAG [GAARRPFPAPAG (SEQ ID NO:14)] was tested. Which inhibition did it give?
**A.** 78%

**Q.** For GPARRPFPATAG-OH [GPARRPFPATAG (SEQ ID NO:22)], which inhibition is on record?
**A.** 58%

**Q.** Which inhibition does the source give for RRPAP [RRPAP (SEQ ID NO:39)] here?
**A.** 0%

**Q.** How did the inhibition turn out when ARFKVWWA [ARFKVWWA (SEQ ID NO:79)] was run?
**A.** 95%

**Q.** For GRRPFPVTAG-OH [… as printed in Table 6 (SEQ ID NO:33)], which inhibition is on record?
**A.** 2%

**Q.** How did the inhibition turn out when GPARRG-OH [GPARRG (SEQ ID NO:29)] was run?
**A.** 8%

**Q.** ARFKVWWG [ARFKVWWG (SEQ ID NO:75)] was tested. Which inhibition did it give?
**A.** 94%

**Q.** GPARRAFPVTAG-OH [GPARRAFPVTAG (SEQ ID NO:19)] was tested. Which inhibition did it give?
**A.** 0%

**Q.** Which inhibition does the source give for GPARRPFG-OH [GPARRPFG (SEQ ID NO:27)] here?
**A.** 0%

**Q.** How did the inhibition turn out when GPARRPAPVTAG-OH [GPARRPAPVTAG (SEQ ID NO:20)] was run?
**A.** 49%

**Q.** SRFKVWWAG-OH [SRFKVWWAG (SEQ ID NO:68)] was tested. Which inhibition did it give?
**A.** 80%

**Q.** How did the inhibition turn out when Ac-ARFKVWWA [Ac-ARFKVWWA (SEQ ID NO:80)] was run?
**A.** 94%

**Q.** How did the inhibition turn out when GAARRPAPAPSG [GAARRPAPAPSG (SEQ ID NO:11)] was run?
**A.** 75%

**Q.** How did the inhibition turn out when RRPAG-OH [RRPAG (SEQ ID NO:41)] was run?
**A.** 0%

**Q.** For GAARRPFPAPSG [GAARRPFPAPSG (SEQ ID NO:7)], which inhibition is on record?
**A.** 77%

**Q.** WWAAG-OH [WWAAG (SEQ ID NO:67)] was tested. Which inhibition did it give?
**A.** 0%

**Q.** ARFKVWWGG [ARFKVWWGG (SEQ ID NO:78)] was tested. Which inhibition did it give?
**A.** 93%

**Q.** With GPARRPG-OH [GFARRFG as printed in Table 6 (SEQ ID NO:28)] as the binder, how does the inhibition read?
**A.** 4%

**Q.** With GAARRPFPVTAG [GAARRPFPVTAG (SEQ ID NO:16)] as the binder, how does the inhibition read?
**A.** 61%

**Q.** Which inhibition does the source give for GAARRPFPAASG [GAARRPFPAASG (SEQ ID NO:13)] here?
**A.** 69%

**Q.** With GFPVTAG-OH [GFFVTAG as printed in Table 6 (SEQ ID NO:36)] as the binder, how does the inhibition read?
**A.** 0%

**Q.** How did the inhibition turn out when GAARAPFPAPSG [GAARAPFPAPSG (SEQ ID NO:9)] was run?
**A.** 0%

**Q.** How did the inhibition turn out when GPVTAG-OH [GFVTAG as printed in Table 6 (SEQ ID NO:37)] was run?
**A.** 0%

**Q.** With GAARRAFPAPSG [GAARRAFPAPSG (SEQ ID NO:10)] as the binder, how does the inhibition read?
**A.** 0%

**Q.** Which inhibition does the source give for GARRPFPVTAG [GARRPFPVTAG (SEQ ID NO:32)] here?
**A.** 27%

**Q.** For GRRPAPG-OH [GRRPAPG (SEQ ID NO:43)], which inhibition is on record?
**A.** 0%

**Q.** With GAARRPFAAPSG [GAARRPFAAPSG (SEQ ID NO:12)] as the binder, how does the inhibition read?
**A.** 24%

**Q.** RRPFP [RRPFP (SEQ ID NO:40)] was tested. Which inhibition did it give?
**A.** 0%

**Q.** How did the inhibition turn out when GPARAPFPVTAG-OH [GPARAPFPVTAG (SEQ ID NO:18)] was run?
**A.** 0%

**Q.** For GPARRPFPVTG-OH [GPARRPFPVTG (SEQ ID NO:24)], which inhibition is on record?
**A.** 48%

**Q.** SRFKVWG-OH [SRFKVWG (SEQ ID NO:70)] was tested. Which inhibition did it give?
**A.** 8%

**Q.** Which inhibition does the source give for AARRPFPG [AARRPFPG (SEQ ID NO:47)] here?
**A.** 28%

**Q.** GPARRPFAVTAG-OH [GPARRPFAVTAG (SEQ ID NO:21)] was tested. Which inhibition did it give?
**A.** 17%

**Q.** AAARRPAPG [AAARRPAPG (SEQ ID NO:46)] was tested. Which inhibition did it give?
**A.** 51%

**Q.** GRPFPVTAG-OH [… as printed in Table 6 (SEQ ID NO:34)] was tested. Which inhibition did it give?
**A.** 0%

**Q.** With GPARG-OH [GPARG (SEQ ID NO:30)] as the binder, how does the inhibition read?
**A.** 0%

**Q.** With RFKVWWAAG-OH [RFKVWWAAG (SEQ ID NO:65)] as the binder, how does the inhibition read?
**A.** 22%

**Q.** For SRFKVG-OH [SRFKVG (SEQ ID NO:71)], which inhibition is on record?
**A.** 7%

**Q.** Which inhibition does the source give for Ac-ARFKVWWAA [Ac-ARFKVWWAA (SEQ ID NO:81)] here?
**A.** 93%
